Measurements from patent US20230201308A1, “TREATMENT OF CORONAVIRUS INFECTION WITH […]” (Eiger Biopharmaceuticals, Inc., priority 2020, published 2023).
Where two headings read alike, the source gives them in different places.

Test system: SARS-CoV-2

B1: pegylated interferon lambda-1a (protein)
chain: MKPTTTGKGCHIGRFKSLSPQELASFKKARDALEESLKLKNWSCSSPVFPGNWDLRLLQVRERPVALEAELALTLKVLEAAAGPALEDVLDQPLHTLHHILSQLQACIQPQPTAGPRPRGRLHHWLHRLQEAPKKESAGCLEASVTFNLFRLLTRDLKYVADGNLSLRTSTHPEST
modifications: PEG
notes: 180 mcg subcutaneous injection
- risk reduction by dominant variant (August 2021 to December 2021, Delta predominant): 46%
- risk reduction by dominant variant (December 2021 to February 2022, Omicron dominant): 83%
- # events (variant analysis) (Full Study, June 2021-February 2022, N 916): 916 (25)
- risk reduction by dominant variant (June 2021 to August 2021, Gamma predominant): 25%
- HR, all-cause mortality or hospitalization due to COVID-19, Time-to-Event analysis (human, in vivo): 0.00
- RR, all-cause mortality or hospitalization due to COVID-19 (human, in vivo): 0.14
- estimated effect across variants (human, in vivo): beneficial across all variants
- efficacy across SARS-CoV-2 variants (viral sequencing on all patients): pan-variant efficacy in all variants tested, including omicron
